# Source: the supplement of paper PMC6757056
# ± gives the standard deviation of the averaged measurements.
# B1: library; a variant is named by its letters at N, in order (parent)
# chain: GCUGUCACCGGUGUAUUACCCUAGUGGUCGACCGGUCUGAUGAGUCUNNNNNNAGACGAAACAGC
# Columns and labels:
# [1] = variants of: B1; assay: normalized RNA/DNA level with ligand (relative to sTRSVctl = 100) (log10 (% of sTRSVctl)); ligand: hypoxanthine (xanthine aptamer); higher = less ribozyme self-cleavage, higher mRNA level; details: ligand concentration (+) RNA-Seq: 5 mM, HEK293T, reporter: mCherry (pCS4076), ligand present: yes
# Method in brief: (§1)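 Total RNA, extracted with EDTA 72 h after HEK293T cells were transfected with 4 µg per 6-well well of reporter-linked ribozyme switch library plasmids, was reverse-transcribed, amplified, barcoded and sequenced. Ligand, if used, was added 1 h before transfection. RNA level was derived from RNA reads divided by DNA reads and normalized to a spiked-in non-cleaving sequence or to the top sequences. This was multiplied by 100 and log10-transformed, with the top set of 25 sequences and a ≥100 DNA read minimum.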
# [2] = variants of: B1; assay: normalized RNA/DNA level without ligand (relative to sTRSVctl = 100) (log10 (% of sTRSVctl)); ligand: hypoxanthine (xanthine aptamer); higher = less ribozyme self-cleavage, higher mRNA level; details: HEK293T, reporter: mCherry (pCS4076), ligand present: no
# Method in brief: as §1
Variant,normalized RNA/DNA level with ligand (log10) [1],normalized RNA/DNA level without ligand (log10) [2]
AUUUCA,1.87 ± 0.04,1.829 ± 0.017
AUUUCG,1.901 ± 0.0068,1.568 ± 0.015
AUUUCC,1.9621 ± 0.0014,1.878 ± 0.0067
AUUUCU,1.96 ± 0.052,1.917 ± 0.018
AUUGCU,1.92 ± 0.048,1.88 ± 0.048
AUUGCC,1.95 ± 0.021,1.85 ± 0.021
AUUUUC,1.97 ± 0.056,1.925 ± 0.003
AUUUUA,1.9 ± 0.029,1.83 ± 0.037
UUUUAG,1.9 ± 0.03,1.76 ± 0.055
UUUUAA,1.931 ± 0.0049,1.85 ± 0.056
UUUUAC,1.93 ± 0.031,1.83 ± 0.031
CUUUUG,1.95 ± 0.042,1.89 ± 0.078
CUUUUU,1.95 ± 0.058,1.806 ± 0.012
CUUUUC,1.95 ± 0.06,1.92 ± 0.077
CUUUCC,1.91 ± 0.05,1.96 ± 0.039
CUUUCG,1.97 ± 0.064,1.903 ± 0.014
CUUUCU,1.93 ± 0.048,1.88 ± 0.038
GUUUGA,1.97 ± 0.0084,1.75 ± 0.032
GUUUGU,1.95 ± 0.03,1.885 ± 0.01
GUUUGC,1.922 ± 0.016,1.61 ± 0.062
GUUGCU,1.97 ± 0.069,1.862 ± 0.0076
GUUGCC,1.9665 ± 0.0019,1.9 ± 0.033
GUUGCG,1.87 ± 0.041,1.58 ± 0.072
GUUUAC,1.96 ± 0.04,1.88 ± 0.028
GUUUAU,1.96 ± 0.05,1.83 ± 0.042
UUUUUG,1.98 ± 0.025,1.83 ± 0.064

Variant,normalized RNA/DNA level with ligand (log10) [1],normalized RNA/DNA level without ligand (log10) [2]
UUUUUA,1.99 ± 0.064,1.93 ± 0.045
UUUUUC,2.02 ± 0.043,1.99 ± 0.02
UUUUUU,1.973 ± 0.01,1.973 ± 0.017
UUUUCG,1.923 ± 0.0085,1.79 ± 0.053
UUUUCA,1.94 ± 0.056,1.901 ± 0.012
UUUUCU,1.99 ± 0.052,1.9 ± 0.02
UUUGCG,1.91 ± 0.11,1.778 ± 0.0053
UUUGCU,1.95 ± 0.023,1.95 ± 0.022
UUUGCC,1.92 ± 0.034,1.9514 ± 0.00098
GUUUUA,1.93 ± 0.025,1.865 ± 0.0019
UUUGUA,1.93 ± 0.024,1.87 ± 0.089
UUUGUC,2.0103 ± 0.0014,1.99 ± 0.036
UUUGUU,1.952 ± 0.018,1.87 ± 0.027
CUUGUC,2 ± 0.037,1.98 ± 0.04
CUUGUA,1.94 ± 0.062,1.83 ± 0.045
CUUGUG,1.96 ± 0.056,1.883 ± 0.015
CUUGUU,1.909 ± 0.0024,1.9 ± 0.022
GUUUCA,1.98 ± 0.024,1.9949 ± 0.0014
GUUUCU,2 ± 0.063,2.02 ± 0.027
GUUUCG,1.9698 ± 0.0015,2.01 ± 0.098
UUUUGU,1.94 ± 0.037,1.842 ± 0.011
UUUUGC,1.94 ± 0.048,1.889 ± 0.0056
UUUUGG,1.898 ± 0.0019,1.738 ± 0.007
GUUGGA,1.913 ± 0.0093,1.67 ± 0.042
GUUGGU,1.9283 ± 0.00055,1.78 ± 0.021
GUUGGC,1.9 ± 0.029,1.51 ± 0.025

Variant,normalized RNA/DNA level with ligand (log10) [1],normalized RNA/DNA level without ligand (log10) [2]
AUUUAG,1.85 ± 0.033,1.55 ± 0.053
AUUUAC,1.927 ± 0.011,1.847 ± 0.0068
AUUUAU,1.9 ± 0.039,1.907 ± 0.019
UUUGGA,1.93 ± 0.027,1.67 ± 0.026
UUUGGC,1.99 ± 0.059,1.92 ± 0.053
UUUGGU,1.976 ± 0.0094,1.8 ± 0.027
UUUGGG,1.92 ± 0.025,1.71 ± 0.035
GUUGUC,1.943 ± 0.0065,1.9 ± 0.052
AUUGGC,1.94 ± 0.03,1.836 ± 0.0094
CUUUGU,1.93 ± 0.021,1.975 ± 0.013
CUUUGG,1.88 ± 0.032,1.58 ± 0.043
CUUUGC,1.92 ± 0.026,1.88 ± 0.06
CUUUGA,1.97 ± 0.035,1.88 ± 0.0019
AUUUGG,1.81 ± 0.03,1.39 ± 0.12
AUUGUU,1.9265 ± 0.0005,1.8319 ± 0.00072
AUUGUC,1.952 ± 0.016,1.969 ± 0.015
AUUGUA,1.89 ± 0.021,1.78 ± 0.022
CUUGCG,1.937 ± 0.0067,1.853 ± 0.004
CUUGCC,1.9562 ± 0.0012,1.884 ± 0.015
CUUUAC,1.92 ± 0.073,1.81 ± 0.052
CUUUAA,1.92 ± 0.049,1.78 ± 0.054
CUUGGU,1.98 ± 0.051,1.95 ± 0.04
CUUGGC,1.95 ± 0.069,1.9 ± 0.089
CUUGGG,1.866 ± 0.013,1.587 ± 0.013
